Experimental data published in patent US20190062396A1.

Target: thyrotropin receptor (TSHR) (UniProt P16473)
Experiment: cell-based or functional assay

Chain of UniProt P16473 (P16473 21-764 limits assumed): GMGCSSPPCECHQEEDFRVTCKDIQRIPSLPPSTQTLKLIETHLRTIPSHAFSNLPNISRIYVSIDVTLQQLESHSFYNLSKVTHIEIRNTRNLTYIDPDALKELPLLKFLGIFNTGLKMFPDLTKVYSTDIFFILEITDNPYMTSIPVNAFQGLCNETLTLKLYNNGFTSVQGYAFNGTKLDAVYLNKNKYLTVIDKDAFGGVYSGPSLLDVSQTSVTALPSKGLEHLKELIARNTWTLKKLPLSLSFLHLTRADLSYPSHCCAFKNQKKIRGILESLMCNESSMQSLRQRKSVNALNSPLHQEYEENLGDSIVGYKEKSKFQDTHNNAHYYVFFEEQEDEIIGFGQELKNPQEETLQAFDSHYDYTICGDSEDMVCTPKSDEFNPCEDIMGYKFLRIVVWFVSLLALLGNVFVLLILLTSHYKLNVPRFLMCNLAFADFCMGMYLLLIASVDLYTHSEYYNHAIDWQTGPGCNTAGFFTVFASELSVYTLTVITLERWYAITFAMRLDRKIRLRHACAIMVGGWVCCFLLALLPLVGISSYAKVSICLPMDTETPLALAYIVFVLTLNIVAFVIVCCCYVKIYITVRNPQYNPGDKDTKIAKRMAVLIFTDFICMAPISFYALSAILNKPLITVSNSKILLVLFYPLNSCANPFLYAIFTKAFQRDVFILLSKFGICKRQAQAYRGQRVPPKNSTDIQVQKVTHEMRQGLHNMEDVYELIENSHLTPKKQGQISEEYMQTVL

Substance: recombinant human thyroid stimulating hormone (rhTSH) produced and purified by the method of the invention (from UniProt P01215 25-116; P01222 21-138) (ligand)
- EC50 of cAMP induction (RLU, HitHunter cAMP XS+ luminescence) in CHO-K1 cells expressing TSHR, relative to the control group (Thyrogen): 99%
